Measured values from PMC5788916, “The SAM domain of mouse SAMHD1 is critical for its activation and regulation” (Nature Communications, 2018).
“And” between values parts separate entries of the source, which are not always exact repeats. Identical values can stand only once.

Key:
[1] = target: full-length mouse SAMHD1 (mSAMHD1), wild type (mouse) (UniProt Q60710); assay: not stated; up to 24 h of assembly with dGTP-α-S (Supplementary Fig. 1a)
[2] = target: full-length mouse SAMHD1 (mSAMHD1), wild type (mouse) (UniProt Q60710); assay: crystal structure; 1-Allo: co-crystallised with 4 mM dGTP-α-S; space group P2(1)2(1)2, 2 copies in the asymmetric unit; 3.4 Å
[3] = target: full-length mouse SAMHD1 (mSAMHD1), wild type (mouse) (UniProt Q60710); assay: crystal structure; No-Allo (0-Allo): crystallised without nucleotides; space group C2, 4 copies in the asymmetric unit; 3.5 Å
[4] = target: full-length mouse SAMHD1 (mSAMHD1), wild type (mouse) (UniProt Q60710); assay: SEC; Superdex 200 10/300 GL; 2 mg/ml, 200 ul; 50 mM Tris-HCl pH 8.0, 150 mM NaCl, 5 mM MgCl2, 0.5 mM TCEP; no nucleotides added
[5] = target: full-length mouse SAMHD1 (mSAMHD1), wild type (mouse) (UniProt Q60710); assay: AUC; sedimentation velocity, 0.8-1.3 mg/mL, 20 °C, 50 mM Tris-HCl pH 8.0, 150 mM NaCl, 5 mM MgCl2, 0.5 mM TCEP; with 150 uM nucleotides (dGTP-α-S)
[6] = target: full-length mouse SAMHD1 (mSAMHD1), wild type (mouse) (UniProt Q60710); assay: as above; remark: listed apart in the source
[7] = target: full-length mouse SAMHD1 (mSAMHD1), wild type (mouse) (UniProt Q60710); assay: AUC; sedimentation velocity, 0.8-1.3 mg/mL, 20 °C, 50 mM Tris-HCl pH 8.0, 150 mM NaCl, 5 mM MgCl2, 0.5 mM TCEP; protein alone, no nucleotides added
[8] = target: full-length mouse SAMHD1 (mSAMHD1), wild type (mouse) (UniProt Q60710); assay: SEC; Superdex 200 10/300 GL; 2 mg/ml, 200 ul; 50 mM Tris-HCl pH 8.0, 150 mM NaCl, 5 mM MgCl2, 0.5 mM TCEP; after addition of dGTP-α-S (methods: nucleotide 4 mM final); read-out: assembly of monomers or dimers into tetramers
[9] = target: full-length mouse SAMHD1 (mSAMHD1), wild type (mouse) (UniProt Q60710); assay: as above; remark: listed apart in the source
[10] = target: mouse SAMHD1 HD domain, isoform 2 (residues 145-651) (mouse); assay: AUC; sedimentation velocity, 0.8-1.3 mg/mL, 20 °C, 50 mM Tris-HCl pH 8.0, 150 mM NaCl, 5 mM MgCl2, 0.5 mM TCEP; with 150 uM nucleotides (dGTP-α-S)
[11] = target: mouse SAMHD1 HD domain, isoform 2 (residues 145-651) (mouse); assay: AUC; sedimentation velocity, 0.8-1.3 mg/mL, 20 °C, 50 mM Tris-HCl pH 8.0, 150 mM NaCl, 5 mM MgCl2, 0.5 mM TCEP; protein alone, no nucleotides added
[12] = target: mouse SAMHD1 HD domain, isoform 2 (residues 145-651) (mouse); assay: AUC; sedimentation velocity, 0.8-1.3 mg/mL, 20 °C, 50 mM Tris-HCl pH 8.0, 150 mM NaCl, 5 mM MgCl2, 0.5 mM TCEP; with 150 uM nucleotides (dGTP-α-S); remark: listed apart in the source
[13] = target: mouse SAMHD1 HD domain, isoform 2 (residues 145-651) (mouse); assay: SEC; Superdex 200 10/300 GL; 2 mg/ml, 200 ul; 50 mM Tris-HCl pH 8.0, 150 mM NaCl, 5 mM MgCl2, 0.5 mM TCEP; after addition of dGTP-α-S (methods: nucleotide 4 mM final); read-out: assembly of monomers or dimers into tetramers
[14] = target: the molecule itself; assay: as above
[15] = target: the molecule itself; assay: AUC; sedimentation velocity, 0.8-1.3 mg/mL, 20 °C, 50 mM Tris-HCl pH 8.0, 150 mM NaCl, 5 mM MgCl2, 0.5 mM TCEP; protein alone, no nucleotides added

Molecule: full-length mouse SAMHD1 (mSAMHD1), wild type (from UniProt Q60710 1-658) (enzyme)
- stoichiometry N [1]: 4
- stoichiometry N [2]: 4
- stoichiometry N [3]: 4
- stoichiometry N [4]: 2 and 4
- stoichiometry N [5]: 2
- stoichiometry N [6]: 4
- stoichiometry N [7]: 2 and 4
- stoichiometry N [8]: 2
- stoichiometry N [9]: 4

Molecule: mouse SAMHD1 HD domain, isoform 2 (residues 145-651) (domain or fragment)
- stoichiometry N [10]: 4
- stoichiometry N [11]: 2
- stoichiometry N [12]: 2
- stoichiometry N [13]: 4

B1: human SAMHD1 L77F/C80F/H111R triple mutant (FFR) (enzyme, UniProt Q9Y3Z3 1-626, looked up)
chain: MQRADSEQPSKRPRCDDSPRTPSNTPSAEADWSPGLELHPDYKTWGPEQVCSFLRRGGFEEPVLLKNIRENEITGAFLPFLDESRFENLGVSSLGERKKLLSYIQRLVQIRVDTMKVINDPIHGHIELHPLLVRIIDTPQFQRLRYIKQLGGGYYVFPGASHNRFEHSLGVGYLAGCLVHALGEKQPELQISERDVLCVQIAGLCHDLGHGPFSHMFDGRFIPLARPEVKWTHEQGSVMMFEHLINSNGIKPVMEQYGLIPEEDICFIKEQIVGPLESPVEDSLWPYKGRPENKSFLYEIVSNKRNGIDVDKWDYFARDCHHLGIQNNFDYKRFIKFARVCEVDNELRICARDKEVGNLYDMFHTRNSLHRRAYQHKVGNIIDTMITDAFLKADDYIEITGAGGKKYRISTAIDDMEAYTKLTDNIFLEILYSTDPKLKDAREILKQIEYRNLFKYVGETQPTGQIKIKREDYESLPKEVASAKPKVLLDVKLKAEDFIVDVINMDYGMQEKNPIDHVSFYCKTAPNRAIRITKNQVSQLLPEKFAEQLIRVYCKKVDRKSLYAARQYFVQWCADRNFTKPQDGDVIAPLITPQKKEWNDSTSVQNPTRLREASKSRVQLFKDDPM
notes: human SAMHD1 with three SAM domain residues changed to their mouse counterparts; compared with full-length WT hSAMHD1; also called FFR mutant; source: purified
- stoichiometry N [14]: 4

B2: mouse SAMHD1 HD domain, isoform 1 (residues 145-658) (domain or fragment, UniProt Q60710 145-658, looked up)
chain: DLMKVFNDPIHGHIEFHPLLIRIIDTPQFQRLRYIKQLGGGYYVFPGASHNRFEHSLGVGYLAGCLVRALAEKQPELQISERDILCVQIAGLCHDLGHGPFSHMFDGRFIPRARPEKKWKHEQGSIEMFEHLVNSNELKLVMKNYGLVPEEDITFIKEQIMGPPITPVKDSLWPYKGRPATKSFLYEIVSNKRNGIDVDKWDYFARDCHHLGIQNNFDYKRFIKFARICEVEYKVKEDKTYIRKVKHICSREKEVGNLYDMFHTRNCLHRRAYQHKISNLIDIMITDAFLKADPYVEITGTAGKKFRISTAIDDMEAFTKLTDNIFLEVLHSTDPQLSEAQSILRNIECRNLYKYLGETQPKREKIRKEEYERLPQEVAKAKPEKAPDVELKAEDFIVDVINVDYGMEDKNPIDRVHFYCKSNSKQAVRINKEQVSQLLPEKFAEQLIRVYCKKKDGKSLDAAGKHFVQWCALRDFTKPQDGDIIAPLITPLKWNNKTSSCLQEVSKVKTCLKF
notes: mouse SAMHD1 isoform 1, HD domain without the SAM domain, residues 145-658; The text speaks of 'mHD' and gives limits for both isoforms; source: E. coli BL21 (DE3), purified (Ni-NTA, size-exclusion chromatography)
- stoichiometry N [15]: 2
- stoichiometry N [14]: 4
